Measured values taken from PMC8549118 (Nature structural & molecular biology, 2021).
Non-standard residues stand in square brackets, D forms with d. No end group written: not given here. pT = C[C@@H](OP(=O)(O)O)[C@H](N)C(=O)O; pS = N[C@@H](COP(=O)(O)O)C(=O)O

Molecular target: T1, VSP-C363S (voltage-sensing phosphatase, aa 241-576) (C. intestinalis, UniProt Q4W8A1 241-576, C363S)
T1 sequence (looked up): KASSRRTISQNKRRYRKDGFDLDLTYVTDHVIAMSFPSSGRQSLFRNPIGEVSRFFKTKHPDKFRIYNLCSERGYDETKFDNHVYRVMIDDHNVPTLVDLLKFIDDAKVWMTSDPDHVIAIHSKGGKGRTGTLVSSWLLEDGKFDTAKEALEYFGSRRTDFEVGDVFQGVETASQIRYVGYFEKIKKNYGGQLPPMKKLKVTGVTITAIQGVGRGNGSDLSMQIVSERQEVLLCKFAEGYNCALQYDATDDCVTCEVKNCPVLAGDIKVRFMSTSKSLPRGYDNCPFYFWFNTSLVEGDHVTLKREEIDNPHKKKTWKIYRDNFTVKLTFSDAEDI
Assay: fluorescence polarisation

CRY[pS]D[pT][pT]D[pS]DPENEG [4p-T2, tetraphosphorylated PTEN C-tail peptide (15 aa)]
binding result: binds
